Experimental data reported in patent US20220016218A1 (YISSUM RESEARCH DEVELOPMENT COMPANY OF THE HEBREW …, published 2022).
*1 amine or outer side, *2 acyl side, *3 side chain or, on linkers, in order; H or OH if unused. Where a SMILES comes first, the peptide text is derived from it. [ ]: non-standard residue; d: D form. Arg(ω,ω'-(C6H13OCO)2) = CCCCCCOC(=O)N=C(NCCC[C@H](N)C(=O)O)NC(=O)OCCCCCC; X1 = CCCCCCOC(=O)N=C(NCCC[C@@H](N[*:1])C(=O)[*:2])NC(=O)OCCCCCC; dNMeR = CN[C@H](CCCNC(=N)N)C(=O)O; NMeD = CN[C@@H](CC(=O)O)C(=O)O; NMeV = CN[C@H](C(=O)O)C(C)C; NMeA = CN[C@@H](C)C(=O)O; dNMeA = CN[C@H](C)C(=O)O

B1: peptide 12, c(*aRGDA*A) (peptide)
peptide: cyclo([dNMeA]RGDA[NMeA])
notes: NMe(1,6) scaffold cyclic hexapeptide; also called the drug

Target: T1, human αvβ6-Integrin (human, UniProt P06756 31-992; P18564 22-707, limits assumed)
T1 construct: Soluble integrin bought from R&D
T1 sequence (P06756 31-992 limits assumed, chain 1 of 2): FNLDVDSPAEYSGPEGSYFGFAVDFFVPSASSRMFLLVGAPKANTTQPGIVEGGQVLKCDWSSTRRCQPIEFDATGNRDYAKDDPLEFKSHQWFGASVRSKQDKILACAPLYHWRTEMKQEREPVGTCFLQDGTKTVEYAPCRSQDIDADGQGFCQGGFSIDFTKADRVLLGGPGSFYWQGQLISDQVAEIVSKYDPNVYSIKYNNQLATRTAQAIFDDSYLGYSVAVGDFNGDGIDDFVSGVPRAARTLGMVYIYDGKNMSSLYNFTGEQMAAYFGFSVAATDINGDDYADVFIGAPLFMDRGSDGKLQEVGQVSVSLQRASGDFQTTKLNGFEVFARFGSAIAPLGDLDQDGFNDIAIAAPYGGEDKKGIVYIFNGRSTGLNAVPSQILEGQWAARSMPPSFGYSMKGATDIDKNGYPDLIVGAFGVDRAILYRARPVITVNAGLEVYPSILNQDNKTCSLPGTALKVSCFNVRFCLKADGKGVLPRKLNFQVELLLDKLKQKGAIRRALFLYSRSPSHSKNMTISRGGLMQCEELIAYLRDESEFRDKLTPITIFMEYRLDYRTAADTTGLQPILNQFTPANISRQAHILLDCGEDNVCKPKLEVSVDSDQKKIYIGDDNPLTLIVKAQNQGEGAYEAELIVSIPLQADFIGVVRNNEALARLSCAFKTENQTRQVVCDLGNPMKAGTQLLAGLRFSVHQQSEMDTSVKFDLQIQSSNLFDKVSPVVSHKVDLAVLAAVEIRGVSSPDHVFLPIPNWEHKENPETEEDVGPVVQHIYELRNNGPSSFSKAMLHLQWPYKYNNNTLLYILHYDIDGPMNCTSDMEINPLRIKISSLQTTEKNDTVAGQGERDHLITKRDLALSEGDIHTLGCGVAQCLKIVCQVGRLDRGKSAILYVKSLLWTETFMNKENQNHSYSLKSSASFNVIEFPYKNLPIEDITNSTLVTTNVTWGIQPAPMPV
T1 sequence (P18564 22-707 limits assumed, chain 2 of 2): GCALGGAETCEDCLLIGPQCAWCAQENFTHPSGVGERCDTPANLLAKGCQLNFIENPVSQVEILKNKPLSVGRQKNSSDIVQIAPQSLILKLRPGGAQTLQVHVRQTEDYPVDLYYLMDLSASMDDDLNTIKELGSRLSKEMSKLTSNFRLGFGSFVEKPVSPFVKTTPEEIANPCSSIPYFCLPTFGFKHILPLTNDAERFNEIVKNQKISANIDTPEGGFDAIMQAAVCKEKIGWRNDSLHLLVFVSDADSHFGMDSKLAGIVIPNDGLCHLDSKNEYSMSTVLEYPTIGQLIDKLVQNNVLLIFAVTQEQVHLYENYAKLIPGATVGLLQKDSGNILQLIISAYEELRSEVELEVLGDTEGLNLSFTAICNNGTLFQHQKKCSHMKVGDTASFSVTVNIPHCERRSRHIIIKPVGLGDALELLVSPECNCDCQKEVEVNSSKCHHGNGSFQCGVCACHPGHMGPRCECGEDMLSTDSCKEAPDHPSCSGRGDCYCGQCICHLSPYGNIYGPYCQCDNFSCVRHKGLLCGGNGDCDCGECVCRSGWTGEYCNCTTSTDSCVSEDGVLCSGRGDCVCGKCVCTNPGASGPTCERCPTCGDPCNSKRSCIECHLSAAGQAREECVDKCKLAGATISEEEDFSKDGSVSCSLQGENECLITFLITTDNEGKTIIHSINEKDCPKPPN
Assay: solid-phase competition assay; value given for the internal standard
Conditions: not given

Row | Molecule | IC50
1 | RTDLDSLRT (Internal standard for αvβ6 and αvβ8) [linear peptide RTDLDSLRT] | 6 to 33 nM

Target: T2, human αvβ8-Integrin (human, UniProt P06756 31-992; P26012 43-684)
T2 construct: Soluble integrin bought from R&D
T2 sequence (P06756 31-992 limits assumed, chain 1 of 2): as the sequence (P06756 31-992 limits assumed, chain 1 of 2) above
T2 sequence (P26012 43-684 limits assumed, chain 2 of 2): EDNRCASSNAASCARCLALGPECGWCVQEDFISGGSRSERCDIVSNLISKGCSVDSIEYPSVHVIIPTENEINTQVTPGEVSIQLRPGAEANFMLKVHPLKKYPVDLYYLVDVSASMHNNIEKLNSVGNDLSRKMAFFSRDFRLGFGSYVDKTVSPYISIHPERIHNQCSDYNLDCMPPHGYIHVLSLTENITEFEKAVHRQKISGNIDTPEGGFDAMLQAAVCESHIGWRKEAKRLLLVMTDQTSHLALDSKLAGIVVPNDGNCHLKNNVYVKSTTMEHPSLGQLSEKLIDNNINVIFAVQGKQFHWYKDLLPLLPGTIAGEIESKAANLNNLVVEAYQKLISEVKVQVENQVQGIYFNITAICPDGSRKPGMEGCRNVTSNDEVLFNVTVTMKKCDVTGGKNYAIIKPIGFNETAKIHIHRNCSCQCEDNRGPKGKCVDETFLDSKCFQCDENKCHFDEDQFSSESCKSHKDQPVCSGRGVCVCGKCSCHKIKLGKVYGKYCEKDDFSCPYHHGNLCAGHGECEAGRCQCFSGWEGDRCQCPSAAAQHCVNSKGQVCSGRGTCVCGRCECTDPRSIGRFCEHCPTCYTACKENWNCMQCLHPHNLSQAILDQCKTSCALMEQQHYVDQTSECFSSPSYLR
Assay: as above
Conditions: not given

Row | Molecule | IC50
2 | RTDLDSLRT (Internal standard for αvβ6 and αvβ8) [linear peptide RTDLDSLRT] | 8 to 100 nM

Target: T3, human αvβ3-integrin (human, UniProt P06756 31-992; P05106 27-718)
T3 construct: Soluble integrin bought from R&D; also called integrin subtype αvβ3; αvβ3 receptor
T3 sequence (P06756 31-992 limits assumed, chain 1 of 2): as the sequence (P06756 31-992 limits assumed, chain 1 of 2) above
T3 sequence (P05106 27-718 limits assumed, chain 2 of 2): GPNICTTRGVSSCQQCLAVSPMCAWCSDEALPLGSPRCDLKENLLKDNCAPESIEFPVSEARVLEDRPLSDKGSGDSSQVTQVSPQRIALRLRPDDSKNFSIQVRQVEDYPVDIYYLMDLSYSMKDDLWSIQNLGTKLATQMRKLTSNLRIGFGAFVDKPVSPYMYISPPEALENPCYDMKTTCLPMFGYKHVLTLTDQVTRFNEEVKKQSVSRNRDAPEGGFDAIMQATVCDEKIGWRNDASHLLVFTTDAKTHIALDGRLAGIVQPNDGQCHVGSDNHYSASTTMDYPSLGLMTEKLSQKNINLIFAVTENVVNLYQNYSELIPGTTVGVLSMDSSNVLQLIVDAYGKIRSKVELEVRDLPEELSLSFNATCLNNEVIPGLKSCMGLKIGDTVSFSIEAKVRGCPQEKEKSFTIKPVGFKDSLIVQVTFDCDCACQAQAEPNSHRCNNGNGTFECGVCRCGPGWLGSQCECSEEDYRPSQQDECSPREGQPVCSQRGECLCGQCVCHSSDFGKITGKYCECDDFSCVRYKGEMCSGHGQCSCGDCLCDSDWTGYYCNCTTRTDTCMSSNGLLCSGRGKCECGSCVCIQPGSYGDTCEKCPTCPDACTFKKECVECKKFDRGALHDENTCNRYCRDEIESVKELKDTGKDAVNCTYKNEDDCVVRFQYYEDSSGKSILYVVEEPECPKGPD
Assay: solid-phase competition assay: soluble human αvβ3 on coated vitronectin
Conditions: not given

Row | Molecule | IC50
3 | cyclo([dR]G[NMeD]A[NMeA]A) (NMe(3,5) scaffold cyclic hexapeptide) [peptide 17, c(rG*DA*AA)] | 2350 nM
4 | cyclo([dR]GDA[NMeA][NMeA]) (NMe(5,6) scaffold cyclic hexapeptide) [peptide 23, c(rGDA*A*A)] | 73 nM
5 | cyclo([dNMeR]GDA[NMeA]A) (NMe(1,5) scaffold cyclic hexapeptide) [peptide 5, c(*rGDA*AA)] | 13 nM
6 | cyclo([dNMeR]GDA[NMeA]V) (NMe(1,5) scaffold cyclic hexapeptide) [peptide 32, c(*rGDA*AV)] | 5.6 nM
7 | cyclo([dNMeR]GDA[NMeA]F) (NMe(1,5) scaffold cyclic hexapeptide) [peptide 33, c(*rGDA*AF)] | 4.4 nM
8 | B1 | 4.8 nM

Target: T4, human αvβ5-integrin (human, UniProt P06756 31-992; P18084 24-719, limits assumed)
T4 construct: Soluble integrin bought from Millipore
T4 sequence (P06756 31-992 limits assumed, chain 1 of 2): as the sequence (P06756 31-992 limits assumed, chain 1 of 2) above
T4 sequence (P18084 24-719 limits assumed, chain 2 of 2): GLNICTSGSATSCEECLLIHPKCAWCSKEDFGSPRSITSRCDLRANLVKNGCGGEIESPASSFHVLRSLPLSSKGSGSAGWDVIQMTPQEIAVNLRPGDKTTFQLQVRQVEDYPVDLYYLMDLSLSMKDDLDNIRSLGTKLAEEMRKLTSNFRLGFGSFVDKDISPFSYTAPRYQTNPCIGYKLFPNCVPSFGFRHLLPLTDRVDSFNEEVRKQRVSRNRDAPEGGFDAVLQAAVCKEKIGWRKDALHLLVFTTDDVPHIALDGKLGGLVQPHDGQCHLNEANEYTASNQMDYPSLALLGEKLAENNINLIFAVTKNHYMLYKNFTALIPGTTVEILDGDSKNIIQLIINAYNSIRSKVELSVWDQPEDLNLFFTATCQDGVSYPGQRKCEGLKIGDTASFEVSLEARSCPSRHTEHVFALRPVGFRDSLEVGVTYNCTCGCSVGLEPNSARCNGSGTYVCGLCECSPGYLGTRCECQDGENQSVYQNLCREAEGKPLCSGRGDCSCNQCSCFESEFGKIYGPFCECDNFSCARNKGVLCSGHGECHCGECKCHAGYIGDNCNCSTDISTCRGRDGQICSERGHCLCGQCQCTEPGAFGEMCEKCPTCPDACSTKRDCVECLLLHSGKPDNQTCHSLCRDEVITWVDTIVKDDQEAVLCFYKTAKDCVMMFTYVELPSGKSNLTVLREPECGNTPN
Assay: solid-phase competition assay: soluble human αvβ5 on coated vitronectin
Conditions: not given

Row | Molecule | IC50
9 | cyclo([dNMeR]GDA[NMeA]A) (NMe(1,5) scaffold cyclic hexapeptide) [peptide 5, c(*rGDA*AA)] | 170 nM
10 | B1 | 1500 nM

Target: T1, human αvβ6-Integrin
Assay: solid-phase competition assay: soluble human αvβ6 on coated LAP (TGF-β)
Conditions: not given

Row | Molecule | IC50
11 | cyclo([dR]GDA[NMeA][NMeA]) (NMe(5,6) scaffold cyclic hexapeptide) [peptide 23, c(rGDA*A*A)] | 130 nM
12 | cyclo([dNMeR]GDA[NMeA]A) (NMe(1,5) scaffold cyclic hexapeptide) [peptide 5, c(*rGDA*AA)] | 25 nM
13 | cyclo([dNMeR]GDA[NMeA]V) (NMe(1,5) scaffold cyclic hexapeptide) [peptide 32, c(*rGDA*AV)] | 3.8 nM
14 | cyclo([dNMeR]GDA[NMeA]F) (NMe(1,5) scaffold cyclic hexapeptide) [peptide 33, c(*rGDA*AF)] | 25 nM
15 | B1 | 770 nM

Tested on: not listed separately
Assay: shake flask in triplicate (rotator; centrifuged); both phases by HPLC-MS/MS; mebendazole reference
Conditions: PBS pH 7.4, mutually saturated, not stated C, DMSO stock (small aliquot)

Row | Molecule | log D (1-octanol / PBS pH 7.4)
16 | CCCCCCOC(=O)N=C(NCCC[C@@H]1NC(=O)[C@@H](C(C)C)N(C)C(=O)[C@H](C)N(C)C(=O)[C@H](C)NC(=O)[C@H](CC(=O)OC)NC(=O)CNC1=O)NC(=O)OCCCCCC | 4.86 log units
17 | CCCCCCOC(=O)NC(=N)NCCC[C@@H]1NC(=O)[C@@H](C(C)C)N(C)C(=O)[C@H](C)N(C)C(=O)[C@H](C)NC(=O)[C@H](CC(=O)OC)NC(=O)CNC1=O | 1.85 log units
18 | CCCCCCOC(=O)N=C(NCCC[C@H]1NC(=O)[C@H](C(C)C)N(C)C(=O)[C@@H](C)N(C)C(=O)[C@@H](C)NC(=O)[C@@H](CC(=O)OC)NC(=O)CNC1=O)NC(=O)OCCCCCC (cyclo(G[dD](OMe)[dA][dNMeA][NMeV][X1])) | >4.5 log units
19 | CCCCCCOC(=O)N=C(NCCC[C@@H]1NC(=O)[C@H](Cc2ccccc2)NC(=O)[C@@H]2CCCN2C(=O)[C@@H]2CCCN2C(=O)[C@H](CC(C)C)NC(=O)[C@H](C)NC(=O)[C@H](CC(C)C)NC(=O)[C@H](CC(=O)O)NC(=O)CNC1=O)NC(=O)OCCCCCC (cyclo(ALPPF[Arg(ω,ω'-(C6H13OCO)2)]GDL)) | >4.5 log units
20 | CC(C)[C@H]1C(=O)N[C@@H](CCCNC(=N)N)C(=O)NCC(=O)N[C@@H](CC(=O)O)C(=O)N[C@H](Cc2ccccc2)C(=O)N1C | <−1 log units
21 | CCCCCCOC(=O)N=C(NCCC[C@@H]1NC(=O)[C@H](C(C)C)N(C)C(=O)[C@@H](Cc2ccccc2)NC(=O)[C@H](CC(=O)O)NC(=O)CNC1=O)NC(=O)OCCCCCC | 3.95 log units
22 | CC(C)[C@@H]1C(=O)N[C@@H](CCCNC(=N)N)C(=O)NCC(=O)N[C@@H](CC(=O)O)C(=O)N[C@@H](C)C(=O)N(C)[C@@H](C)C(=O)N1C | <−1 log units
23 | CC(C)C[C@@H]1NC(=O)[C@H](CC(=O)O)NC(=O)CNC(=O)[C@H](CCCNC(=N)N)NC(=O)[C@H](Cc2ccccc2)NC(=O)[C@@H]2CCCN2C(=O)[C@@H]2CCCN2C(=O)[C@H](CC(C)C)NC(=O)[C@H](C)NC1=O (cyclo(RGDLALPPF)) | −0.19 log units
24 | COC(=O)Nc1nc2cc(C(=O)c3ccccc3)ccc2[nH]1 | 3.04 log units
25 | CCCCCCOC(=O)N=C(NCCC[C@@H]1NC(=O)[C@H](CC(C)C)NC(=O)CNC(=O)[C@@H]2CCCN2C(=O)[C@@H]2CCCN2C(=O)[C@H](CC(C)C)NC(=O)[C@H](CC(=O)O)NC(=O)CNC1=O)NC(=O)OCCCCCC (cyclo(LPPGL[Arg(ω,ω'-(C6H13OCO)2)]GD)) | >4.5 log units
26 | CC(C)C[C@@H]1NC(=O)CNC(=O)[C@@H]2CCCN2C(=O)[C@@H]2CCCN2C(=O)[C@H](CC(C)C)NC(=O)[C@H](CC(=O)O)NC(=O)CNC(=O)[C@H](CCCNC(=N)N)NC1=O (cyclo(RGDLPPGL)) | <−1 log units
